Experiments:
Assay in all cases: EMSA
Settings in all cases: EMSA: binding buffer stock 80 mM Tris-HCl pH 8.0, 20 mM MgCl2, 2 mM DTT, 4 mM EDTA, 400 mM KCl, 40% glycerol (final dilution not stated); poly(dI-dC) …
[1] = tested on: AraQ (Bifidobacterium breve UCC2003)
[2] = tested on: MalR1 (Bifidobacterium breve UCC2003)
[3] = tested on: T1, AraQ (Bifidobacterium breve UCC2003), ORF:c628000b
T1 sequence: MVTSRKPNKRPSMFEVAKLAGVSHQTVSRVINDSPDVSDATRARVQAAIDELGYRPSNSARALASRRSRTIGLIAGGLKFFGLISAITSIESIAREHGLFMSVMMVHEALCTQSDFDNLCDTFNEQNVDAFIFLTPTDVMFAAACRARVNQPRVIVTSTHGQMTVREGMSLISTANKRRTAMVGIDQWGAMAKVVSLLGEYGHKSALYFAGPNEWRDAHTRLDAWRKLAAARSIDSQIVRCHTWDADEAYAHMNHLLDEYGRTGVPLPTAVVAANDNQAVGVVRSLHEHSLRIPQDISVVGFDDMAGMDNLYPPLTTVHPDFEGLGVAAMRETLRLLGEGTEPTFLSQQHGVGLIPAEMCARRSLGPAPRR

[4] = tested on: T2, MalR1 (Bifidobacterium breve UCC2003), ORF:82221dfa
T2 sequence: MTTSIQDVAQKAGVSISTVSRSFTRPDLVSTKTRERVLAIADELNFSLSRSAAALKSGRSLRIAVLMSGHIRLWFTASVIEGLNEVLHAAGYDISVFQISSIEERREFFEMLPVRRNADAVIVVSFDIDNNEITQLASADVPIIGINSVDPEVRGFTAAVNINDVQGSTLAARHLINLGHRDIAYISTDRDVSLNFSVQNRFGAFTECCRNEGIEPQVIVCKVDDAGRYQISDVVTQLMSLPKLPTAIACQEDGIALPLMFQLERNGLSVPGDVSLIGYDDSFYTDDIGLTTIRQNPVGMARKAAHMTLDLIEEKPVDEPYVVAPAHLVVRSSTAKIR

Row | Substance | binding signal [1] | binding signal [2] | binding signal [3] | binding signal [4]
1 | Bbr_1420 promoter | 0 % bound | < 15 % bound |  | 
2 | Bbr_1658 promoter | 0 % bound | 0 % bound |  | 
3 | Bbr_1659 promoter | 0 % bound | 0 % bound |  | 
4 | Bbr_1841 promoter | < 15 % bound | 0 % bound |  | 
5 | Bbr_1894 (PTS) promoter |  | < 15 % bound |  | 
6 | CATACGCCTCTCGCTTTCGTCATTGGGCCGACGTCACTGCCGGCACAAAACCGCGACACATGTATGCGTCTTGGTCAACGCTGAATCGTCTCATCACTGAAATGATTTAACGTTTAATCACTTGCGTGATTCATAATATATCGTTTAATCACAGGGGTCAATCAGCGTGTCGAGAGCGTTAACAATCGCGTCCTAACGCCATTACCAGCACATCAGAAACACAATATGGCACAAAAAAAGACAAAATATTGGCGGCGAAGGACTATTGAGC (double strand) [rbsA1 promoter] |  |  | 0 % bound | binds
7 | CGAATGCCATATCCGTCTCCTCCTTGCGGCTTACTGCAGCGTTAGAAATGCACAATTCAAATGTACCCTTCTTATAACCGACGCCCGCAAGGTCGTGTCATGCGTCAAACTCTTTTACTGCAGACATTTTTGAGGCTTCTGCTGTTTTCGTGGGCTAGCTGACTGGTTCCGGTAGTCGGATGTCGAGTCCGCCGCATCTGAGCATGATC (double strand) [Bbr_1420 promoter] |  |  | 0 % bound | < 15 % bound
8 | CGACAGCTTCCTTGCCATGCTGGCCCTCCTTTATTTTCCAACCCTCGGTTTTCCGCATTGTGCAATCTGCATTGTTTGCCTTGCGGAATCTTAGGAAATTATTTTCCTAAAATGTTTTCTTGAGATAAGATTATAGGACGCCAACGTCAGTGTCAACACGGCGGGTCGAGGGTCGCACAACCCGGACCGAACGGCCCACAATGGCGACGTAGCAAGGAACAGAACGCTACGCCCTTGTACACTGATACAGAGGAAAACAGGCAGGAGGGGAGACATGAACATCAGGGACATCGCACGC (double strand) [Bbr_1841 promoter] |  |  | < 15 % bound | 0 % bound
9 | CTTCGCCACGTCATACACCGTTGCCCTACGCATGATTCCTACTTTAATCGATTCCGGAGGTCAGCACACGTTCGACCTGAATCTAAAAAAAGTTTTAGTGGCTTTCCTGTCAATCTCGCATGCATACTTCAGGTTACGGGCGCAGCACCCAATAATGGGTACCGCGCCTTAATGACCGCTACACGAGCAGTCTCAGCAACTGGTAAAGCTGCCATAGGCTGCGCACGTTG (double strand) [Bbr_1659 promoter] |  |  | 0 % bound | 0 % bound
10 | GATGAGTGCGCGTGAGAAGAAGAAGGCTGCCGTAGAAGCGAAATAATCGGTGCATGGCCGCTCTGCAGATATATGGAGGGCGGTCTGCGAACCGCCGGGAATGGGTTGCCAATCCCGGCGGTTTGTGTATCCGTGGCGCAGTACAGTCGTAAAGGAAGGCAAGGAGGACAACCATGGCGGAAGGTGTACCGAAGTATATTGCGGTTAGGGACAATCTTCGCCAGCGTG (double strand) [gntR promoter] |  |  | 0 % bound | 0 % bound
11 | GCGTTCTATCCTTGCACTGAGCCACGAAAGACGGCATTGTGCAAACGATGGCATACTGTGGGATGCGGAATGACAAGACATGTGATACTCTCTGACTGAGAACGTATGCAACAACTGTCTGCCAACGCTGTTACAGAGAGTTCATGCACACGTTTATGCGACGATACCAATCGCGCGGCATAATAAGCACGGGCACTTATCCCGGAAGGAAAGTCAGAATG (double strand) [glgP1 promoter] |  |  | binds | 0 % bound
12 | GCTCGCTTTTGCCATGGCAACCTCGCTCATCAACAGTGGATAACAATCCCGCTCAAAAGACAACGTTATCATACCTAAGCGAGCAACATGCACGCCACGCTGTCTATTTAGAAGTGCAACGCCCCTGTTCGTCGGCTAATTCTTGCAGTTCGTCGGTGAATGCCCCGGGCCCCCGGATTCAACTTGTAAGTGCAACGGCTGGTTTCGG (double strand) [malR2 promoter] |  |  | binds | 0 % bound
13 | GGTCAAGCTCATCGTGCGGGGCAGCTGTGGGTGCTGATTATTTCTTGAAGAAGGCTAAATAAGGCTTTTGAGACCTCCTGCAGGGGAGTCACTGTTGATGCTGTTTCGTCGTGTCGAATCGGTTCGCGAGTTGACAAACAAAAAACTATGCGCTTAAATATTAATCACAATCTACGCGGTTAGATTGTTGAGAAGTAACAGTTCAAGGAGGAACGAGGAATGAAGCGAAGCATGTTCAAGATGGCGACTGCCATCATCGCCAGTGCGGCTATGCTGACCAG (double strand) [Bbr_1658 promoter] |  |  | 0 % bound | 0 % bound
14 | GGTTGTCGTAATCCTCGGTGGAAGGACCGATGGTGTCTACGATCTTGGCTTTACGCATGAATGCCTGCCTATTCTTGTTCTTTTTTGGTTCGAGGCGCGATTGCCTCACTTGCCGCAGCCCAGTCTACTAGCGCAGACCGGCTCATGACAAGTTTATTCCCCGGTGTGTTGTGAGCGCTCACACTGTTGCGCCGATTGGGTTTTGAGGGGTTGATTTCCCTATGATTTCAGGCCTTCTCAGCG (double strand) [pyk promoter] |  |  | binds | binds
15 | agl3 promoter | 0 % bound | 0 % bound |  | 
16 | cldE promoter | 0 % bound |  |  | 
17 | cldR promoter | 0 % bound | 0 % bound |  | 
18 | glgP1 promoter |  | 0 % bound |  | 
19 | glgP2 promoter | 0 % bound | 0 % bound |  | 
20 | gntR promoter | 0 % bound | 0 % bound |  | 
21 | malE promoter |  | 0 % bound |  | 
22 | malG2 (F2) promoter |  | 0 % bound |  | 
23 | malQ promoter | < 15 % bound | 0 % bound |  | 
24 | malR2 promoter |  | 0 % bound |  | 
25 | malR3/apuB intergenic region | < 15 % bound | < 15 % bound |  | 
26 | malR5/malE2 intergenic region | < 15 % bound | < 15 % bound |  | 
27 | nrdH promoter |  | 0 % bound |  | 
28 | rbsA1 promoter | 0 % bound |  |  | 

Reference: paper PMC6882875
